From US6734342B2, “Theobromine synthase polypeptide of coffee plant and the gene encoding said polypeptide” (Nara Institute of Science and Technology, priority 2000, dated 2004)

Legend:
[1] = Measurement of enzymatic (methyl transferase) activity of GST fusion proteins by thin layer chromatography; type: biochemical; details: for activity as theobromine synthase: polypeptides with higher than 80% homology to SEQ.ID. NO: 1; for activity as a methyl transferase: substrates xanthine, 7-methylxanthine, theobromine, paraxanthine, theophylline, 200 μM each
Procedure: The open reading frame regions of MTL1 (Clone #1), MTL2 (Clone #6), MTL3 (Clone #35) and MXMT1 (Clone #45) were amplified by PCR (polymerase chain reaction). Then, they were optionally cloned into pGEX 4T-2 vector (Pharmacia) and E. coli (JM109) cells were transformed with the resulting plasmids. The obtained E. coli cells were cultured in LB liquid medium containing ampicillin. When OD600 of the culture reached to 0.5, IPTG (isopropyl thio-β-D-galactoside) was added to it and the final concentration of IPTG was made to 1 mM, then the mixture was further cultured at 16° C. for 6 hours. E. coli was desrupted by a sonicator and the protein of the purpose was purified by glutathione Sepharose 4B as a GST (glutathione S-transferase) fusion protein. Concentration of the protein was measured by the Bradford method. Each of the GST fusion protein (500 ng) was separated by SDS-PAGE (sodium dodecyl sulfate polyacrylamide gel electro-phoresis), then it was stained by CBB (coumasie Brilliant Blue) to confirm purification.
Measurement of enzymatic activity was performed using thin layer chromatography (TLC), based on the method of Kato et al. (Plant Physiol., 1996, 98, 629-636). In concrete, the reaction mixture of 100 μl, containing 100 mM Tris-HCl (pH 7.5), 200 μM substrate (xanthine, 7-methylxanthine, theobromine, paraxanthine, theophylline), 4 μM ^14C-labeled S-adenosylmethionine, 200 μM MgCl2, 200 ng GST fusion protein, was incubated at 27° C. for 2 hours. After the reaction, the resulting mixture was extracted with 1 ml of chloroform, the chloroform layer was recovered, then chloroform was evaporated by speed back concentrator. The residue was dissolved in 5 μl of 50% methanol solution, then the solution was developed by TLC (solvent for development was water:acetic acid:n-butanol=2:1:4, v/v/v). After the development, signal of radio activity was detected by image analyzer (Fuji BAS 2000). The result of enzymatic activity, which was measured on the fusion proteins derived from MTL2, MTL3 and MXMT1 using xanthine (X), 7-methylxanthine (7-Mx), theobromine (Tb), paraxanthine (Px) and theophylline (Tp) as the substrate, was shown in FIG. 5.

[2] = Enzymatic activity measurement and identification of the reaction product by HPLC; type: biochemical; details: 200 μM 7-methylxanthine, 50 μM S-adenosylmethionine, 200 ng GST fusion protein, 27° C., 2 hours; UV 254 nm (FIG. 6)
Procedure: Using high performance liquid chromatography (HPLC), enzymatic activity of the MXMT1 fusion protein was measured and reaction product obtained from the enzymatic reaction was identified. The reaction mixture of 100 μl, containing 100 mM Tris-HCl (pH 7.5), 200 μM of substrate (7-methylxanthine, paraxanthine, theobromine), 50 μM of S-adenosylmethionine, 200 μM of MgCl2, 200 ng of GST fusion protein, was incubated at 27° C. for 2 hours. After incubation, the mixture was extracted with 1 ml of chloroform, the chloroform layer was recovered, then chloroform was evaporated by a speed back concentrator. The residue was dissolved in 50 μl of 12% acetonitrile. Then the solution was fractionated by HPLC (Shodex Rspak DS-613 column) provided with UV detection system. As the solution for development, 12% acetonitrile was used and the signal was detected for absorbance of 254 nm.
The MXMT1 fusion protein was reacted with S-adenosylmethionine and 7-methylxanthine, which is the substrate and the reaction product was analyzed by HPLC. […] Furthermore, S-adenosylmethionine and 7-methylxanthine was reacted with MXMT1 fusion protein and then theobromine was added to the reaction mixture. The peak position of the reaction product detected in FIG. 6A coincided with the position of theobromine, which was analyzed as the standard compound. […]

B1: SEQ.ID. NO: 3: Coffea arabica polypeptide homologous to MXMT1, encoded by clone #1 cDNA (SEQ ID NO: 4) (protein, listed as Caffea arabica)
chain: MELQEVLHMNGGEGEASYAKNSSFNQLVLAKVKPVLEQCVRELLRANLPNINKCIKVADLGCASGPNTLLTVWDTVQSIDKVKQEMKNELERPTIQVFLTDLFQNDFNSVFMLLPSFYRKLEKENGRKIGSCLIAAMPGSFHGRLFPEESMHFLHSSYSLQFLSQVPSGLVTELGITANKRSIYSSKASPPPVQKAYLDQFTKDFTTFLRMRSEELLSRGRMLLTCICKGDECDGPNTMDLLEMAINDLVAEGRLGEEKLDSFNVPIYTASVEEVKCMVEEEGSFEILYLQTFKLRYDAGFSIDDDCQVRSHSPVYSDEHARAAHVASLIRSVYEPILASHFGEAIIPDIFHRFATNAAKVIRLGKGFYNNLIISLAKKPEKSDI
[1]
  activity as theobromine synthase: did not exhibit activity as theobromine synthase

B2: MTL2: Coffea arabica polypeptide homologous to MXMT1, encoded by clone #6 cDNA (SEQ ID NO: 6) (protein, listed as Caffea arabica)
chain: MELQEVLHMNGGEGDASYAKNSSFNQLVLAKVKPVLEQCVGELLRANLPNINKCIKVADLGCASGPNTLLTVRDIVQSIDDVRQEMKNELERPTIQVFLTDLFQNDFNSVFMLLPSFYRKLEKENGRKIGSCLIAAMPGSFHGRLFPEESMHFLHSSYSLQFLSQVPSGLVTELGITANKRSIYSSKASPPPVQKAYLDQFTKDFTTFLRIRSEELLSRGRMLLTCICKGDEFDGPNTMDLLEMAINDLVVEGHLEEEKLDSFNVPIYAASVEELKCIVEEEGSFEILYLETFKLRYDAGFSIDDDCQVRSHSPEYSDEHARAAHVASLLRSVYEPILANHFGEAIIPDIFHRFATNAAKVIRLGKGFYNNLIISLAKKPEKSDI
[1]
  activity as theobromine synthase: did not exhibit activity as theobromine synthase
[1]; TLC (FIG. 5)
  activity as a methyl transferase: did not exhibit activity as a methyl transferase

B3: MTL3: Coffea arabica polypeptide homologous to MXMT1, encoded by clone #35 cDNA (SEQ ID NO: 8) (protein, listed as Caffea arabica)
chain: MELQEVLRMNGGEGDTSYAKNSAYNQLVLAKVKPVLEQCVRELLRANLPNINKCIKVADLGCASGPNTLLTVRDIVQSIDKVGQEKKNELERPTIQIFLNDLFPNDFNSVFKLLPSFYRKLEKENGRKIGSCLIGAMPGSFYSRLFPEESMHFLHSCYCLQWLSQVPSGLVTELGISTNKGSIYSSKASRLPVQKAYLDQFTKDFTTFLRIHSEELFSHGRMLLTCICKGVELDARNAIDLLEMAINDLVVEGHLEEEKLDSFNLPVYIPSAEEVKCIVEEEGSFEILYLETFKVLYDAGFSIDDEHIKAEYVASSVRAVYEPILASHFGEAIIPDIFHRFAKHAAKVLPLGKGFYNNLIISLAKKPEKSDV
[1]
  activity as theobromine synthase: did not exhibit activity as theobromine synthase
[1]; TLC (FIG. 5)
  activity as a methyl transferase: did not exhibit activity as a methyl transferase

B4: MXMT1: theobromine synthase polypeptide of Coffea arabica, amino acids 1 to 378 of SEQ ID NO: 1, expressed in E. coli as GST fusion (protein, listed as Caffea arabica)
chain: MELQEVLHMNEGEGDTSYAKNASYNLALAKVKPFLEQCIRELLRANLPNINKCIKVADLGCASGPNTLLTVRDIVQSIDKVGQEEKNELERPTIQIFLNDLFQNDFNSVFKLLPSFYRKLEKENGRKIGSCLISAMPGSFYGRLFPEESMHFLHSCYSVHWLSQVPSGLVIELGIGANKGSIYSSKGCRPPVQKAYLDQFTKDFTTFLRIHSKELFSRGRMLLTCICKVDEFDEPNPLDLLDMAINDLIVEGLLEEEKLDSFNIPFFTPSAEEVKCIVEEEGSCEILYLETFKAHYDAAFSIDDDYPVRSHEQIKAEYVASLIRSVYEPILASHFGEAIMPDLFHRLAKHAAKVLHMGKGCYNNLIISLAKKPEKSDV
[1]; 200 μM 7-methylxanthine, 4 μM 14C-S-adenosylmethionine, 200 ng GST fusion protein, 27° C., 2 hours, TLC (FIG. 5)
  activity to synthesize theobromine, using 7-methylxanthine as the substrate: potent activity to synthesize theobromine
[1]; 200 μM paraxanthine, relative to the activity with 7-methylxanthine, TLC (FIG. 5)
  relative activity to synthesize caffeine, using paraxanthine as the substrate: 15%
[2]
  reaction product identified by HPLC: theobromine was formed
